The values below come from patent publication US20110144312A1 (Kyowa Kirin, published 2011).

Experiment [1] addresses T1, Biotin-SGSTLDLYHSNGYRARVRAVDG-NH2 (human, N-terminal biotin, C-terminal amide (-NH2)).
T1 peptide: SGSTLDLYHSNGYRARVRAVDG
As to the kind of experiment: ELISA, biotinylated peptide on Extravidin or Neutravidin plates. The procedure: (§1) Multiple ELISA methods were also employed to detect binding of anti-IL-10Rα antibodies to IL-10Rα, derived peptides. The biotinylated IL-10Rα derived peptides (SEQ ID NO. 86-87) were diluted to 1 μg/ml in TBS/BSA/0.05% Tween 20 and added to Extravidin or Neutravidin pre-coated ELISA plates (Pierce) for 2 hours at room temperature. After washing three times with TBS/BSA/0.05% Tween 20. The purified anti-human IL-10Rα antibodies were diluted in TBS/BSA/0.05% Tween 20 and added to the wells. The plates were incubated for 1 hour at room temperature. The plates were washed 3 times with TBS/0.05% Tween 20 and peroxidase-conjugated goat anti-human IgG (Fcγ specific), anti-rat IgG, or anti-mouse IgG detection antibodies (Jackson Immunoresearch) were added. Following 1 hour incubation at room temperature, the plates were washed and the TMB (Sigma) substrate was added and incubated at room temperature for 5 to 10 minutes. The reaction was stopped with H₂SO₄ (LabChem) and the optical density was measured at 450 nm using a microplate reader. An OD reading above background wells with no primary antibody is indicative of antibody binding to the peptides. […] The antibodies only bound the positive control biotinylated recombinant human IL-10Rα:hFc protein. […] Antibody binding was detected with species-specific anti-IgG-HRP secondary antibodies. […]
A general note: ELISA stands for enzyme-linked immunosorbent assay.

Experiment [2] deals with T2, Biotin-SGSTYSIFSHFREYEIAIRKV-NH2 (human, N-terminal biotin, C-terminal amide (-NH2)).
T2 peptide: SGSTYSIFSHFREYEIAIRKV
The experiment is described as above. The procedure: as §1

The target in experiment [3] is T3, SNP variant V113I of human IL-10Rα extracellular domain fused to the Fc portion of human IgG1 (human).
T3 construct: The entry already holds the change and includes the signal peptide; also called V1131
The experiment in a line: ELISA with SNP variant Fc fusion.
Target sequence in this assay (chain, as listed by the source V113I V113I limits assumed): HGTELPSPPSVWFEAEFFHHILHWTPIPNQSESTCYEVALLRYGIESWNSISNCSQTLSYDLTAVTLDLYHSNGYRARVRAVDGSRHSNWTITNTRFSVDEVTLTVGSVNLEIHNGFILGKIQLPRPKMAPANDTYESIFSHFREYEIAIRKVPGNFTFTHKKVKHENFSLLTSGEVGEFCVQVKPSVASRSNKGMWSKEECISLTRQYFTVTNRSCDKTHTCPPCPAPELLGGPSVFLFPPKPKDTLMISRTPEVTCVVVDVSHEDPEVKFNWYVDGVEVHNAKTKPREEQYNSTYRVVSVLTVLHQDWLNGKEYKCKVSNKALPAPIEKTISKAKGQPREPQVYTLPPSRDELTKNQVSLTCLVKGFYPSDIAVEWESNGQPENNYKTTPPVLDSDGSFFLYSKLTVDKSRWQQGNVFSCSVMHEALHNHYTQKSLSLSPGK

The target of experiment [4] is T4, SNP variant R212E of human IL-10Rα extracellular domain fused to the Fc portion of human IgG1 (human).
T4 construct: The entry already holds the change and includes the signal peptide
T4 sequence (chain, as listed by the source R212E R212E limits assumed): as the sequence (chain, as listed by the source V113I V113I limits assumed) above, with I92V, R191E counted along it
The experiment in a line: ELISA with SNP variant Fc fusion.

Experiment [5] concerns the target T5, SNP variant L61V of human IL-10Rα extracellular domain fused to the Fc portion of human IgG1 (human).
T5 construct: The entry already holds the change and includes the signal peptide; also called L61I; L611
The experiment in a line: ELISA with SNP variant Fc fusion.

Experiment [6] has as its target T6, SNP variant S159G of human IL-10Rα extracellular domain fused to the Fc portion of human IgG1 (human).
T6 construct: The entry already holds the change and includes the signal peptide
As to the kind of experiment: ELISA with SNP variant Fc fusion.

Experiment [7] concerns the target T7, SNP variant V233M of human IL-10Rα extracellular domain fused to the Fc portion of human IgG1 (human).
T7 construct: The entry already holds the change and includes the signal peptide
As to the kind of experiment: ELISA, coated SNP variant Fc fusion V233M [F].

Experiment [8] deals with T1, Biotin-SGSTLDLYHSNGYRARVRAVDG-NH2. As to the kind of experiment: dot blot on PVDF or nitrocellulose membrane. The procedure: (§2) Methods to detect antibody binding to peptides derived from the human IL-10Rα sequence: Multiple methods were employed to detect binding of anti-human IL-10Rα antibodies to peptides derived from the extracellular domain of human IL-10Rα that have been reported by Reineke, et al. (Reineke, et al., Protein Sci 7:951 (1998)) to be included in the IL-10 binding site of the receptor. The following amide synthesized peptides were tested: Ac-[…]-NH2, Ac-[…]-NH2, Ac-[…]-NH2, Ac-[…]-NH2, Ac-[…]-NH2 (SEQ ID NO. 81-85). In addition, the following biotinylated peptides were tested: Biotin-[…]-NH2, Biotin-[…]-NH2 (SEQ ID NO. 86-87). The amide peptides were synthesized by A&A Labs, LLC (San Diego, Calif.) and the biotinylated peptides were synthesized by GenScript (Piscataway, N.J.) both at >95% purity and reconstituted at 20 mg/ml in DMSO. In one assay design peptides were spotted at 5 μg/spot in PBS onto PVDF membranes or nitrocellulose membranes that had been prepared according to the manufacturer's instructions. The membranes were incubated with anti-IL-10Rα antibodies using standard Western blotting methods (e.g. Towbin, et al., Proc Natl Acad Sci 76:4350 (1979)). Native human IL-10Ra:hFc and heat denatured human IL-10Ra:hFc were also spotted at 1 μg/spot on the membranes as controls. Negative controls included an irrelevant peptide and isotype controls. […] None of the antibodies bound to the spotted denatured protein or to any of the peptides derived from the human IL-10Ra extracellular domain or the irrelevant peptide.

The target of experiment [9] is T2, Biotin-SGSTYSIFSHFREYEIAIRKV-NH2. The experiment in a line: dot blot on PVDF or nitrocellulose membrane. As to the method:
as §2

In experiment [10] the target is T3, SNP variant V113I of human IL-10Rα …. The experiment in a line: ELISA, coated SNP variant Fc fusion V113I [C].

T6 sequence (chain, as listed by the source S159G S159G limits assumed): as the sequence (chain, as listed by the source V113I V113I limits assumed) above, with I92V, S138G counted along it
T5 sequence (chain, as listed by the source L61V L61V limits assumed): as the sequence (chain, as listed by the source V113I V113I limits assumed) above, with L40V, I92V counted along it

B1: 136C5 (antibody, V domains shown)
VH: EVQLVESGGGLVQPGGSLRLSCAASGFTFSSYSMNWVRQAPGKGLEWVSYISTGSSTIYYADSVKGRFTISRDNAKNSLYLQMNSLRDEDTAVYYCARENYYGSGSYEDYFDYWGQGTLVTVSS
VL: EIVLTQSPATLSLSPGERATLSCRASQSVSSYLAWYQQKPGQAPRLLIYDASNRATGIPARFSGSGSGTDFTLTISSLEPEDFAVYYCQQRSNWPIFTFGPGTKVDIK
notes: Hybridoma antibody, human IgG1, kappa light chain; also called human anti-human IL-10Rα monoclonal antibody 136C5; hybridoma deposit PTA-9131
B1: the binding result in experiment [1] is given as “no binding (tested: 1 µg/ml peptide)”; in [2], “no binding (tested: 1 µg/ml peptide)”; in [3], “binds”; in experiment [4], “binds”; in experiment [5], “binds”; in experiment [6], “binds”.

B2: 136C8 (antibody, V domains shown)
VH: EVQLVESGGGLVQPGGSLRLSCAASGFTFSSYSMNWVRQAPGKGLEWVSYISTRSSTIYYADSVKGRFTISRDNAKNSLYLQMNSLRDEDTAVYYCARENYYGSGSYEDYFDYWGQGTLVTVSS
VL: EIVLTQSPATLSLSPGERATLSCRASQSVSSYLAWYQQKPGQAPRLLIYDASNRATGIPARFSGSGSGTDFTLTISSLEPEDFAVYYCQQRSNWPIFTFGPGTKVDIK
notes: Hybridoma antibody, human IgG2, kappa light chain; also called human anti-human IL-10Rα monoclonal antibody 136C8; hybridoma deposit PTA-9132
For B2, the binding result in [7] was “binds”; in [8], “no binding (tested: 5 µg/spot)”; in experiment [9] it was “no binding (tested: 5 µg/spot)”; in [10], “binds”.
